Measured values reported in article PMC9482650, “Quantitative fragmentomics allow affinity mapping of interactomes” (Nature Communications, 2022).
Each block holds one binder with its values, some of them ahead of it.

What was measured:
Test in all cases: holdup assay
Parameters in all cases: key: below the threshold = too weak to quantify, mostly under pKd 3.1 to 4
[1] = target: T1, DLG3_2, Q92796
T1 sequence (Q92796 221-321, limits assumed, looked up): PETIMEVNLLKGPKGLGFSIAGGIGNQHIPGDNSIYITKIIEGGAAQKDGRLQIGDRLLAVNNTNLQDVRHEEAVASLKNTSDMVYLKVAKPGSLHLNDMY

[2] = target: Inadl_8, Q8NI35
Sequence of Inadl_8, Q8NI35 (Q8NI35 1425-1530): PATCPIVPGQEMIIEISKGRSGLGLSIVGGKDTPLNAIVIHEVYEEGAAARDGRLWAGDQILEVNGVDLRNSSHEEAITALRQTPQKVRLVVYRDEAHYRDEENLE

[3] = target: MAGI2_4, Q86UL8
Sequence of MAGI2_4, Q86UL8 (Q86UL8 772-865): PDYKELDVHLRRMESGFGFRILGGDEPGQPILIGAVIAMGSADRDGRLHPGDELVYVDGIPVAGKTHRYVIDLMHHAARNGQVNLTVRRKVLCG

[4] = target: Inadl_3, Q8NI35
Sequence of Inadl_3, Q8NI35 (Q8NI35 359-469): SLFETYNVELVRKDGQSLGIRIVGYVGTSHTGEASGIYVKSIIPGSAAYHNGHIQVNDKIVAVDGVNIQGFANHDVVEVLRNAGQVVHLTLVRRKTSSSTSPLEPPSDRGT

[5] = target: T2, NHERF3_3, Q5T2W1
T2 sequence (Q5T2W1 238-333, limits assumed, looked up): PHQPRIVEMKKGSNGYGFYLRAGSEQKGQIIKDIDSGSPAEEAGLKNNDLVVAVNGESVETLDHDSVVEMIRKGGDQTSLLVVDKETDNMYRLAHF

[6] = target: FRMPD2_3, Q68DX3
Sequence of FRMPD2_3, Q68DX3 (Q68DX3 1073-1166): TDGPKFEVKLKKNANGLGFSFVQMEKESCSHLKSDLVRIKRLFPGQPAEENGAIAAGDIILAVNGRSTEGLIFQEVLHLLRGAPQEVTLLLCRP

[7] = target: T3, TJP3_3, O95049
T3 sequence (O95049 375-456, limits assumed, looked up): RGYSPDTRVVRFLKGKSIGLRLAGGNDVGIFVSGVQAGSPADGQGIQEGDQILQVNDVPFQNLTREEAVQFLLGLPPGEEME

[8] = target: T4, APBA1_1, Q02410
T4 sequence (Q02410 651-752, limits assumed, looked up): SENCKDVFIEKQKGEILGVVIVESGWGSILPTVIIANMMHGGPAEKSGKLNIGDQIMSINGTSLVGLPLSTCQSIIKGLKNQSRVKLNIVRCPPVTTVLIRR

[9] = target: TJP1_3, Q07157
Sequence of TJP1_3, Q07157 (Q07157 416-512): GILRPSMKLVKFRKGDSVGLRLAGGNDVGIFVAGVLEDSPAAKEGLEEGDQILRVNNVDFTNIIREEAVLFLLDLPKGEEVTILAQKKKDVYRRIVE

[10] = target: LNX1_2, Q8TBB1
Sequence of LNX1_2, Q8TBB1 (Q8TBB1 371-470): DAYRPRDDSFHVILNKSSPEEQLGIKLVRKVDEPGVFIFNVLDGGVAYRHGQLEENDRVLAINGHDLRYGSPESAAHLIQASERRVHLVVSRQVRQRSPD

[11] = target: GIPC2, Q8TF65
Sequence of GIPC2, Q8TF65 (Q8TF65 112-203): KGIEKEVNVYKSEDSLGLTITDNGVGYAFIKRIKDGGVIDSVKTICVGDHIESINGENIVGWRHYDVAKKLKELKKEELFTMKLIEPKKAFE

[12] = target: T5, DLG3_3, Q92796
T5 sequence (Q92796 374-475, limits assumed, looked up): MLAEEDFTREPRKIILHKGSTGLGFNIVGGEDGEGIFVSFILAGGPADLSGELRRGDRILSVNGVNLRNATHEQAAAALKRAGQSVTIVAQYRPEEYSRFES

[13] = target: LNX1_1, Q8TBB1
Sequence of LNX1_1, Q8TBB1 (Q8TBB1 261-371): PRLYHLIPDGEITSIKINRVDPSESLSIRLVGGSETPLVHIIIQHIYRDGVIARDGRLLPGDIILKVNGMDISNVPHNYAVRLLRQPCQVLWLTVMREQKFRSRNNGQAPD

[14] = target: MAGI1_1, Q96QZ7
Sequence of MAGI1_1, Q96QZ7 (Q96QZ7 1-106): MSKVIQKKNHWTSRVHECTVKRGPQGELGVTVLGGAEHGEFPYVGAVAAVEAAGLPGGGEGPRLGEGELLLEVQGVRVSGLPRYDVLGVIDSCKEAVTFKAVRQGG

[15] = target: T6, LIN7B, Q9HAP6
T6 sequence (Q9HAP6 88-185, limits assumed, looked up): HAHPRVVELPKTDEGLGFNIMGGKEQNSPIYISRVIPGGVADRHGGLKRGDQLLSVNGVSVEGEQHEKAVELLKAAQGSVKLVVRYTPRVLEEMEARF

[16] = target: Inadl_9, Q8NI35
Sequence of Inadl_9, Q8NI35 (Q8NI35 1530-1615): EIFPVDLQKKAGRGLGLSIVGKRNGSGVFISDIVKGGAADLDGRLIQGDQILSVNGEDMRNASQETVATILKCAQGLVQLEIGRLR

[17] = target: T7, SNTG1, Q9NSN8
T7 sequence (Q9NSN8 52-150, limits assumed, looked up): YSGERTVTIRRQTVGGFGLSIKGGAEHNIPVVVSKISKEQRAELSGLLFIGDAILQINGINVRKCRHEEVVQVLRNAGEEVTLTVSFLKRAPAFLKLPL

[18] = target: T8, TX1BP3, O14907
T8 sequence (O14907 10-122, limits assumed, looked up): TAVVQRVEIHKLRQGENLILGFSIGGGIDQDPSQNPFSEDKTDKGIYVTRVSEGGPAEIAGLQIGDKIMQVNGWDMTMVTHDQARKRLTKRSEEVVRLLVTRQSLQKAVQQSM

[19] = target: T9, MPP2, Q14168
T9 sequence (Q14168 180-250, limits assumed, looked up): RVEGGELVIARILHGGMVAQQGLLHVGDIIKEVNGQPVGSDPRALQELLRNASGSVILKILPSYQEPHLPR

[20] = target: T10, PTPN13_1, Q12923
T10 sequence (Q12923 1088-1188, limits assumed, looked up): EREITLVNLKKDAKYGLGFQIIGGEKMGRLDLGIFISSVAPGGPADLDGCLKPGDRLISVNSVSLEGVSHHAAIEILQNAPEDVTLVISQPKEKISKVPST

[21] = target: T11, DLG3_1, Q92796
T11 sequence (Q92796 125-227, limits assumed, looked up): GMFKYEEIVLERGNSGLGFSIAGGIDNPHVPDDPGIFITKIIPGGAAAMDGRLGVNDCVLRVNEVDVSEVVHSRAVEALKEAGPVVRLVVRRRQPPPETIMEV

[22] = target: T12, GRIP1_2, Q9Y3R0
T12 sequence (Q9Y3R0 145-248, limits assumed, looked up): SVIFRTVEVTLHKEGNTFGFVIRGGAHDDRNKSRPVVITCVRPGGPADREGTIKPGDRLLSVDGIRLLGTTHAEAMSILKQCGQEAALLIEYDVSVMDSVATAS

[23] = target: MAGI2_6, Q86UL8
Sequence of MAGI2_6, Q86UL8 (Q86UL8 1141-1229): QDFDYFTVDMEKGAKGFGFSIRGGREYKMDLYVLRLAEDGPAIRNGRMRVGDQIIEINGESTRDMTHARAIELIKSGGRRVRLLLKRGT

[24] = target: DLG4_2, P78352
Sequence of DLG4_2, P78352 (P78352 155-259): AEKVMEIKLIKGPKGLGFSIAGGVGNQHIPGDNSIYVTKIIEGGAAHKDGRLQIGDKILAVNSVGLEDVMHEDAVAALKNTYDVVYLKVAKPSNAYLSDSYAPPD

[25] = target: CASK, O14936
Sequence of CASK, O14936 (O14936 487-570): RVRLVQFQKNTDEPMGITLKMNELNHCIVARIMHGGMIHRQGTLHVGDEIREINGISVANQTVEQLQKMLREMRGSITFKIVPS

[26] = target: NHERF4_4, Q86UT5
Sequence of NHERF4_4, Q86UT5 (Q86UT5 464-550): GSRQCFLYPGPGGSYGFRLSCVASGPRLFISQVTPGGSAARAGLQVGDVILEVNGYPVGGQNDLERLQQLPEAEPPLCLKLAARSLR

[27] = plain residues with an end cap or a label only (N-terminal biotin on a linker: ahx)
[28] = plain residues with an end cap or a label only (N-terminal biotin on a linker: ttds)
[29] = plain residues with an end cap or a label only (N-terminal biotin on a linker: ado-ado)

Binder: HSGSYLVTSV [APC, P25054]
- pKd [1, 27]: 5.07
- pKd [2, 27]: 4.84
- pKd [3, 27]: 4.17
- pKd [4, 27]: below the threshold
- pKd [5, 27]: below the threshold
- pKd [6, 27]: below the threshold
- pKd [7, 27]: below the threshold
- pKd [8, 27]: below the threshold
- pKd [9, 27]: below the threshold
- pKd [10, 27]: 3.79
- pKd [11, 27]: below the threshold
- pKd [12, 27]: 4.71
- pKd [13, 27]: 4.45
- pKd [14, 27]: below the threshold
- pKd [15, 27]: below the threshold
- pKd [16, 27]: below the threshold
- pKd [17, 27]: 4.23
- pKd [18, 27]: 5.53
- pKd [19, 27]: below the threshold
- pKd [20, 27]: below the threshold
- pKd [21, 27]: 3.82
- pKd [22, 27]: below the threshold
- pKd [23, 27]: 4.85
- pKd [24, 27]: 4.98
- pKd [25, 27]: below the threshold
- pKd [26, 27]: below the threshold

Binder: DPLTPSRSQL [DGKK, Q5KSL6]
- pKd [1, 28]: below the threshold
- pKd [2, 28]: below the threshold
- pKd [3, 28]: below the threshold
- pKd [4, 28]: below the threshold
- pKd [5, 28]: below the threshold
- pKd [6, 28]: below the threshold
- pKd [7, 28]: below the threshold
- pKd [8, 28]: below the threshold
- pKd [9, 28]: below the threshold
- pKd [10, 28]: below the threshold
- pKd [11, 28]: below the threshold
- pKd [12, 28]: below the threshold
- pKd [13, 28]: below the threshold
- pKd [14, 28]: below the threshold
- pKd [15, 28]: below the threshold
- pKd [16, 28]: below the threshold
- pKd [17, 28]: below the threshold
- pKd [18, 28]: below the threshold
- pKd [19, 28]: below the threshold
- pKd [20, 28]: below the threshold
- pKd [21, 28]: below the threshold
- pKd [22, 28]: below the threshold
- pKd [23, 28]: below the threshold
- pKd [24, 28]: below the threshold
- pKd [25, 28]: below the threshold
- pKd [26, 28]: below the threshold

Binder: TGDTLEKFVEGL [CBP, Q92793]
- pKd [1, 28]: below the threshold
- pKd [2, 28]: below the threshold
- pKd [3, 28]: below the threshold
- pKd [4, 28]: below the threshold
- pKd [5, 28]: below the threshold
- pKd [6, 28]: below the threshold
- pKd [7, 28]: below the threshold
- pKd [8, 28]: below the threshold
- pKd [9, 28]: below the threshold
- pKd [10, 28]: below the threshold
- pKd [11, 28]: below the threshold
- pKd [12, 28]: below the threshold
- pKd [13, 28]: below the threshold
- pKd [14, 28]: below the threshold
- pKd [15, 28]: below the threshold
- pKd [16, 28]: below the threshold
- pKd [17, 28]: below the threshold
- pKd [18, 28]: 4.03
- pKd [19, 28]: below the threshold
- pKd [20, 28]: below the threshold
- pKd [21, 28]: below the threshold
- pKd [22, 28]: below the threshold
- pKd [23, 28]: below the threshold
- pKd [24, 28]: below the threshold
- pKd [25, 28]: below the threshold
- pKd [26, 28]: below the threshold

Results, then the binder that gave them:

- pKd [1, 29]: below the threshold
- pKd [2, 29]: below the threshold
- pKd [3, 29]: 3.54
- pKd [4, 29]: 4
- pKd [5, 29]: below the threshold
- pKd [6, 29]: 4.23
- pKd [7, 29]: 3.86
- pKd [8, 29]: below the threshold
- pKd [9, 29]: below the threshold
- pKd [10, 29]: 4
- pKd [11, 29]: below the threshold
- pKd [12, 29]: below the threshold
- pKd [13, 29]: below the threshold
- pKd [14, 29]: below the threshold
- pKd [15, 29]: 3.59
- pKd [16, 29]: 4.41
- pKd [17, 29]: 3.53
- pKd [18, 29]: below the threshold
- pKd [19, 29]: 4.12
- pKd [20, 29]: below the threshold
- pKd [21, 29]: below the threshold
- pKd [22, 29]: below the threshold
- pKd [23, 29]: below the threshold
- pKd [24, 29]: 3.56
- pKd [25, 29]: 3.55
- pKd [26, 29]: below the threshold
Binder: QKNKDKEYYV [NRXN3_rs746444206, Q9Y4C0]

- pKd [1, 29]: 4.68
- pKd [2, 29]: 3.49
- pKd [3, 29]: below the threshold
- pKd [4, 29]: below the threshold
- pKd [5, 29]: below the threshold
- pKd [6, 29]: below the threshold
- pKd [7, 29]: below the threshold
- pKd [8, 29]: below the threshold
- pKd [9, 29]: below the threshold
- pKd [10, 29]: below the threshold
- pKd [11, 29]: below the threshold
- pKd [12, 29]: 3.82
- pKd [13, 29]: below the threshold
- pKd [14, 29]: below the threshold
- pKd [15, 29]: 3.89
- pKd [16, 29]: below the threshold
- pKd [17, 29]: below the threshold
- pKd [18, 29]: 4.4
- pKd [19, 29]: below the threshold
- pKd [20, 29]: 3.71
- pKd [21, 29]: 3.58
- pKd [22, 29]: below the threshold
- pKd [23, 29]: 3.78
- pKd [24, 29]: 4.64
- pKd [25, 29]: below the threshold
- pKd [26, 29]: below the threshold
Binder: RGGFGRQTQI [NCBP2L, A6PVI3]
